Patent US9738726B2, “HER2-specific monoclonal antibodies and conjugates thereof” (The United States of America, as represented by the …, priority 2013, dated 2017)
“Also recorded” adds a separate entry of the source. Where a SMILES comes first, the peptide text is derived from it. [ ]: non-standard residue; d: D form. The star is where a group is joined. ξ: configuration not given here. Dolaproine = CO[C@@H]([C@@H]1CCCN1)[C@@H](C)C(=O)O; Dil = CC[C@H](C)[C@H](NC)[C@@H](CC(=O)O)OC; NMe2Val = CC(C)[C@@H](C(=O)*)N(C)C; ξV = CC(C)C(N)C(=O)O; X1 = NOCCOCCOCCN*

B1: M860 IgG1: Her2-specific human monoclonal antibody from naïve phage display Fab library, VH SEQ ID NO: 2, VL SEQ ID NO: 4, converted to full size human IgG1 (antibody, V domains shown)
VH: EVQLVQSGAEVKKPGESLKISCKGSGYSFTSYWIGWVRQMPGKGLEWMGIIYPGDCDRSDTRYSPSFQGQVTISADKSISTAYLQWSSLKASDTAMYYCARQYSGYDRYYFDYWGQGTLVTVSS
VL: QTVVTQEPSFSVSPGGTVTLTCGLNSGSVSTRHYPSWYQQTPGQAPRTLIYSTDICDRRSSGAPSHISGSILGNKAALTITGAQADDASDYYCALYLGNGIAVFGSGTKVTVLG
modifications: IgG1 constant regions without entry

Experiments:
[1] = test system: MCF-7 cells (do not express Her2); assay: In vitro cytotoxicity assay, MCF-7 cells; type: cell-based; details: 72 hours, FIG. 7B
Protocol: (§1) In Vitro Cytotoxicity Assay
(§2) SKBR3, MCF-7 and JIMT-1 cells were cultured and assayed in DMEM (Life Technologies) with 10% (vol/vol) FBS (Gibco), 100 IU/mL penicillin, and 100 µg/mL streptomycin (Life Technologies). For the cytotoxicity assays, the cancer cell lines were plated in 96-well plates at ˜1,000 cells in 70 μL per well in culture medium and incubated overnight at 37° C. and 5% CO2. Drugs (m860 IgG1, m860 ADC and free drug nAF) were filtered (0.22 μm; Millipore) and 30 μl of serially diluted drugs in culture medium were added into the wells in duplicate and incubated at 37° C. for 72 hours. Colorimetric reagent (Promega) was then added to each well. After a 3-hour incubation at 37° C., the absorbance at 490 nm was measured, and IC50 was determined by GraphPad Prism.

[2] = target: FcγRI (CD64) (Homo sapiens, UniProt P12314); assay: Surface plasmon resonance (Biacore) binding to FcγRI (CD64); details: SPR, FcγRI immobilized on CM5 chip, 25° C., 1:1 model
Chain of FcγRI (CD64) (P12314 16-374, species assumed): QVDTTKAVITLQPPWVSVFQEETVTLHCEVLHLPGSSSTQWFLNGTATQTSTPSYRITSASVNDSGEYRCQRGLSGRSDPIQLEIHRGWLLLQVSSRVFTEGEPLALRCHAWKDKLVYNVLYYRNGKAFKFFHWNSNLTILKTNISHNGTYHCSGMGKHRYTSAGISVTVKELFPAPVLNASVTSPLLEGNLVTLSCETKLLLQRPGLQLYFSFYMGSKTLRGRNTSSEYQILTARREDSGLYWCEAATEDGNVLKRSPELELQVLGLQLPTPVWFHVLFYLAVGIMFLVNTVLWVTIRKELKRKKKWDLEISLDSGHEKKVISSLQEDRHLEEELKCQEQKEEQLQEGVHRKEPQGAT
Protocol: (§3) Comparison of the Binding Affinities of m860 and m860 ADC to FcγRIII (CD16) and FcγRI (CD64) Measured by Surface Plasmon Resonance
(§4) Interactions between the antibodies and CD16 and CD64 were analyzed by surface plasmon resonance technology using a Biacore™ X100 instrument (GE healthcare). CD16 or CD64 was covalently immobilized onto a sensor chip (CM5) using carbodiimide coupling chemistry. A control reference surface was prepared for nonspecific binding and refractive index changes. For analysis of the kinetics of interactions, varying concentrations of antibodies were injected at flow rate of 30 μL/min using running buffer containing 10 mmol/L HEPES, 150 mmol/L NaCl, 3 mmol/L EDTA, and 0.05% Surfactant P-20 (pH=7.4). The association and dissociation phase data were fitted simultaneously to a 1:1 model by using BIAevaluation 3.2. All the experiments were done at 25° C.

[3] = target: FcγRIII (CD16); assay: Surface plasmon resonance (Biacore) binding to FcγRIII (CD16); details: SPR, FcγRIII immobilized on CM5 chip, 25° C., 1:1 model
Protocol: as §3, §4

[4] = target: T1, Her2 on SKBR3 cells (Homo sapiens, UniProt P04626); assay: Flow cytometry binding to Her2 on SKBR3 cells; details: FIGS. 6A-6B
T1 construct: SKBR3 breast cancer cells, which overexpress Her2, were detached in cell dissociation buffer; endogenous in cells; host or cells: SKBR3 breast cancer cells
Protocol: SKBR3 breast cancer cells, which overexpress Her2, were detached in cell dissociation buffer and rinsed in PBS. […] Unbound antibodies were washed away with PBSA. The secondary antibody, goat anti-human IgG conjugated with PE (Sigma), was diluted at 1:100 and incubated with cells on ice for 30 minutes. Cells were washed and resuspended in PBSA buffer for flow cytometry analysis on FACSCalibur (Becton Dickinson).

[5] = test system: SKBR3 cells (overexpress Her2); assay: In vitro cytotoxicity assay, SKBR3 cells; type: cell-based; details: 72 hours, FIG. 7A, listed as WT m860 IgG1
Protocol: as §1, §2

[6] = test system: JIMT-1 cells (moderate Her2 expression, trastuzumab-resistant patient); assay: In vitro cytotoxicity assay, JIMT-1 cells; type: cell-based; details: 72 hours, FIG. 7C
Protocol: as §1, §2

[7] = target: T2, cell surface-associated Her2 (Homo sapiens, UniProt P04626); assay: Binding to cell surface-associated Her2; details: compared with trastuzumab (Herceptin)
T2 construct: endogenous in cells

[8] = target: Her2 (Homo sapiens, UniProt P04626); assay: Competition with Herceptin / epitope comparison; type: binding
[9] = target: T3, Her2-ECD-Fc fusion protein (Homo sapiens, UniProt P04626); assay: Phage ELISA screening of clones panned against Her2-ECD-Fc; type: binding; details: five unique clones after third round of biopanning
T3 construct: three rounds of panning against a recombinant Her2 protein ectodomain; purchased R&D systems
Protocol: A naïve human Fab phage display library (a total of about […] members), constructed from peripheral blood B cells of 10 healthy donors, was used for selection of Fabs against Her2-ECD-Fc fusion protein (R&D systems) conjugated to magnetic beads (DYNABEADS™ M-270 epoxy, Invitrogen). […] After each round of incubation, the beads were washed 5 times for the first round and 15 times for the later rounds with phosphate-buffered saline containing 0.05% Tween 20 (PBST) to remove nonspecifically bound phage. The bead-bound phage were mixed with TG1 cells for 1 hour at 37° C., and the phage was amplified from the infected cells and used in the next round of biopanning. After the third round of biopanning, 190 clones were randomly picked and monoclonal phage was prepared and used for phage ELISA screening to identify the positive binders. […] The nucleotide and amino acid sequences of the m860 VH and VL domains are set forth herein as SEQ ID NOs: 1-4.

Molecule	cytotoxicity [1]	Kd [2]	ka [2]	kd [2]	Kd [3]	ka [3]	kd [3]	binding activity to Her2 on SKBR3 cells before and after nAF conjugation [4]	cytotoxicity [5]	cytotoxicity [6]	affinity for cell surface-associated Her2 [7]	competition with Herceptin / epitope relative to trastuzumab [8]	binding activity in phage ELISA screening [9]
CC[C@H](C)[C@@H]([C@@H](CC(=O)N1CCC[C@H]1[C@H](OC)[C@@H](C)C(=O)N[C@@H](Cc1ccccc1)C(=O)NCCOCCOCCON)OC)N(C)C(=O)C(NC(=O)[C@H](C(C)C)N(C)C)C(C)C (stereo partly shown) [nAF, Auristatin F with a non-cleavable linker attached at the C-terminus] (NMe2Val-[ξV][Dil][Dolaproine]F-X1)	significant cytotoxicity												
B1		22.5 nM	44790 M⁻¹ s⁻¹	0.001007 s⁻¹	1500 nM	11080 M⁻¹ s⁻¹	0.01608 s⁻¹	not impacted by nAF conjugation	did not exhibit any cytotoxicity; also recorded: did not show any cytotoxicity	little effect	comparable to that of trastuzumab	binds to a different epitope	highest binding activity
